One molecule from paper PMC5762688 (Scientific Reports, 2018) can be followed below.

In this assay the target is Importin α2/β1 heterodimer (mouse), tagless recombinant, preformed (mouse, UniProt P52293 1-529; P70168 1-876). The experiment in a line: […]; 10 mM Tris, 150 mM NaCl, 10% glycerol, 0.75 mM TCEP, pH 8.0; […]. To be noted: both partners purified.

B1: Hendra virus V protein residues 1-405, tagless recombinant (domain or fragment)
chain: MDKLDLVNDGLDIIDFIQKNQKEIQKTYGRSSIQQPSTKDRTRAWEDFLQSTSGEHEQAEGGMPKNDGGTEGRNVEDLSSVTSSDGTIGQRVSNTRAWAEDPDDIQLDPMVTDVVYHDHGGECTGHGPSSSPERGWSYHMSGTHDGNVRAVPDTKVLPNAPKTTVPEEVREIDLIGLEDKFASAGLNPAAVPFVPKNQSTPTEEPPVIPEYYYGSGRRGDLSKSPPRGNVNLDSIKIYTSDDEDENQLEYEDEFAKSSSEVVIDTTPEDNDSINQEEVVGDPSDQGLEHPFPLGKFPEKEETPDVRRKDSLMQDSCKRGGVPKRLPMLSEEFECSGSDDPIIQELEREGSHPGGSLRLREPPQSSGNSRNQPDRQLKTGDAASPGGVQRPGTPMPKSRIMPIKKG
As to B1, the binding result is recorded as “binds”.
